Literature values, collected in patent publication US20140011241A1, “Method enabling isomerization process flows at lower pH, lower temperature, and in the presence of certain inhibiting compounds by using the xylose isomerase enzyme from the microorganism Fulvimarina pelagi” (priority 2011, published 2014).

Tested on: xylose isomerase

B1: xylose isomerase from Thermus thermophilus: xylose isomerase from Thermus thermophilus and mutants derived from it (U.S. Pat. No. 6,475,768) (protein, UniProt P26997 1-387, looked up)
Xylose isomerase: MYEPKPEHRFTFGLWTVGNVGRDPFGDAVRERLDPVYVVHKLAELGAYGVNLHDEDLIPRGTPPQERDQIVRRFKKALDETGLKVPMVTANLFSDPAFKDGAFTSPDPWVRAYALRKSLETMDLGAELGAEIYVVWPGREGAEVEATGKARKVWDWVREALNFMAAYAEDQGYGYRFALEPKPNEPRGDIYFATVGSMLAFIHTLDRPERFGLNPEFAHETMAGLNFVHAVAQALDAGKLFHIDLNDQRMSRFDQDLRFGSENLKAAFFLVDLLESSGYQGPRHFDAHALRTEDEEGVWAFARGCMRTYLILKERAEAFREDPEVKELLAAYYQEDPAALALLGPYSREKAEALKRAELPLEAKRRRGYALERLDQLAVEYLLGVRG
  activity at low temperature: very low
  pH at which active: 6
